T1: IL-18Rβ ECD (human)
T1 chain: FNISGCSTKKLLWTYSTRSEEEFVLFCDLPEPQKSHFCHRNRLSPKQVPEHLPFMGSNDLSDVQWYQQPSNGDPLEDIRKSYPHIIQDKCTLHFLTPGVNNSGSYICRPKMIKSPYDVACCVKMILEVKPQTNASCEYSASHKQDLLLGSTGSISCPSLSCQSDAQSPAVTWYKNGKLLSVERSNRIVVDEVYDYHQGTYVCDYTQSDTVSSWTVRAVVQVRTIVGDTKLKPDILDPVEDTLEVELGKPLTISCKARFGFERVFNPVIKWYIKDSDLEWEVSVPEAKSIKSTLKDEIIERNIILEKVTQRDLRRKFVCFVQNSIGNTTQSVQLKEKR

T2: IL-18Rα ECD (human)
T2 chain: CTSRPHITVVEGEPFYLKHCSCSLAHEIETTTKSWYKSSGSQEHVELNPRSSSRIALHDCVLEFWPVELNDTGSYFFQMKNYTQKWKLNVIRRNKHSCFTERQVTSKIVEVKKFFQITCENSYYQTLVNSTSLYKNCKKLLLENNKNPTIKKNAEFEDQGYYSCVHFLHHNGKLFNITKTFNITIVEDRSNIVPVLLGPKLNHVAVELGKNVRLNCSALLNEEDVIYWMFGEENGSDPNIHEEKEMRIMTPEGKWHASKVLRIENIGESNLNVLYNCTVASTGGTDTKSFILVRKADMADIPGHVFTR

B1: IL18R_tanVHHα2β15 (antibody, V domains shown)
V domain 1: DVQLQESGGGLVQAGGSLRLSCAASGFTLLDSYDIGWFRQAPGKKREEVSCISSSGGKSTYYADSVKGRFTISRDNANNTVYLQMNSLKPEDTAVYYCAADGAEGFWSCQSGGYDYWGQGTQVTVSS
V domain 2: DVQLQESGGGLVQPGGSLRLSCAASGRFFTINAMGWYRQTPGKQRELVAAITSDGSTTYQDSVKGRFTISRDNANRTANLYMNSLKSEDTAVYYCNADGRFNDNGYVKNFNIWGQGTQVTVSS
B2: IL18R_VHHα8β17 (antibody, V domains shown)
V domain 1: DVQLQESGGGLVQAGGSLRLSCAASGRTFSNDAMGWFRQAPGKEREFVAAVSWSLGMTYNADSVKGRFTISRDNAKNTVYLQMNSLKPDDTAVYYCAAGPDLSDELYGYDYWGQGTQVTVSS
V domain 2: DVPLQESGGGLVQAGGSLRLSCVASGFALDEIAVGWFRQAPGKEREGLSCISSSDGSTLYADSVKGRFTISSDNAKNTVYLQMNSLKPEDTAVYLCAAVRGSCFGRTTHWGQGTQVTVSS
B3: IL18R_VHHα8β15 (antibody, V domains shown)
V domain 1: DVQLQESGGGLVQAGGSLRLSCAASGRTFSNDAMGWFRQAPGKEREFVAAVSWSLGMTYNADSVKGRFTISRDNAKNTVYLQMNSLKPDDTAVYYCAAGPDLSDELYGYDYWGQGTQVTVSS
V domain 2: DVQLQESGGGLVQPGGSLRLSCAASGRFFTINAMGWYRQTPGKQRELVAAITSDGSTTYQDSVKGRFTISRDNANRTANLYMNSLKSEDTAVYYCNADGRFNDNGYVKNFNIWGQGTQVTVSS
B4: IL18R_VHHα2β17 (antibody, V domains shown)
V domain 1: DVQLQESGGGLVQAGGSLRLSCAASGFTLLDSYDIGWFRQAPGKKREEVSCISSSGGKSTYYADSVKGRFTISRDNANNTVYLQMNSLKPEDTAVYYCAADGAEGFWSCQSGGYDYWGQGTQVTVSS
V domain 2: DVPLQESGGGLVQAGGSLRLSCVASGFALDEIAVGWFRQAPGKEREGLSCISSSDGSTLYADSVKGRFTISSDNAKNTVYLQMNSLKPEDTAVYLCAAVRGSCFGRTTHWGQGTQVTVSS
B5: ms_IL18R_VHHα11 (antibody, V domains shown)
VH: DVPLQESGGGLVQPGQSLRLSCAASGSPIRFSVMGWFQQAPGKGRDLIARITSGGIVYYTDSVKGRFTISKDNAKNTLYLQMNSLNLEDTGVYYCNRLGGALFDWGQGTQVTVSS
B6: ms_IL18R_VHHα2 (antibody, V domains shown)
VH: DVQLQESGGGLVQAGGSLRLSCAASGFTLLDSYDIGWFRQAPGKKREEVSCISSSGGKSTYYADSVKGRFTISRDNANNTVYLQMNSLKPEDTAVYYCAADGAEGFWSCQSGGYDYWGQGTQVTVSS
B7: ms_IL18R_VHHα5 (antibody, V domains shown)
VH: DVQLQESGGGLVQAGGSLRLSCAASGRTFSNLAMAWFRQAPGKEREFVAAIDWNGDNRLYAASVKGRFTISRDNAKSTMYLQMNSLKPEDTAVYYCAADSTYSTDWYLNPLNRTRYDYWGQGTQVTVSS
B8: ms_IL18R_VHHα7 (antibody, V domains shown)
VH: DVQLQESGGGLVQAGGSLRLSCAASGHTFNNLAMAWCRQAPGKEREFVSAIDWNGDNRLYAYSVKGRFTISRDNAKSTMYLQMNSLKPEDTAVYYCAADSTYSTNWYLDPLNRTTYNYWGQGTPVTVSS
B9: ms_IL18R_VHHα1 (antibody, V domains shown)
VH: DVPLQESGGGLVQTGGSLRLSCAASGFTFNSYAMGWYQQAPGKKYRELVAHIGSGGSTRYIDSVKGRFTISRDNAKNTVYLQMNSLKPEDTAVYYCNVYGATLRSWGQGTQVTVSS
B10: ms_IL18R_VHHβ19 (antibody, V domains shown)
VH: DVQLQESGGGLVQAGGSLRLSCAASGIRFNPFRMAWYRQAPGKQRELVAAIDSGGSTDYADSVRGRFTISRDNAKITVSLQMNSLKPEDTAVYYCNTQIFARDYWGQGSQVTVSS
B11: ms_IL18R_VHHα9 (antibody, V domains shown)
VH: DVQLQESGGGLVQPGESLRLSCTASRSDFSRYTMGWYRQAPGKWRELVARITSGGIPHYADSVKGRFTISRDNAKNTVTLQMNTLQFEDSAVYYCNTVGVALWAWGQGTLVTVSS
B12: ms_IL18R_VHHα8 (antibody, V domains shown)
VH: DVQLQESGGGLVQAGGSLRLSCAASGRTFSNDAMGWFRQAPGKEREFVAAVSWSLGMTYNADSVKGRFTISRDNAKNTVYLQMNSLKPDDTAVYYCAAGPDLSDELYGYDYWGQGTQVTVSS
B13: ms_IL18R_VHHα6 (antibody, V domains shown)
VH: DVPLQESGGGSVQPGGSLRLSCAASKSIFSINAMRWHRQAPGKQRELVATFTSSGRINYADSVKGRFTISTDNAKNTIYLQMNSLNPEDTAVYRCNVGLWEDGLWYDYWGQGTQVTVSS
B14: ms_IL18R_VHHα10 (antibody, V domains shown)
VH: DVQLQESGGGLVQAGGSLRLSCAASGLPFSSYAMGWFRQAPGKDREFVAGITWSGSSIYYRDSVKGRFTISRDNAKNTVWLQMNDLKPEDTAVYYCAAARRRVGLPLADPREYVYWGQGTQVTVSS
B15: ms_IL18R_VHHα4 (antibody, V domains shown)
VH: DVQLQESGGGLVQAGGSLRLSCAASGFTLGAYAINWFQQAPGKERARAWVLCITSSGGSAYYVDSVKGRFTVSRDNAKNTVYLQMNSLKPEDTAFYYCAAGGACAAAETMNYWGKGTLVTVSS
B16: ms_IL18R_VHHα3 (antibody, V domains shown)
VH: DVQLQESGGGLVQAGGSLRLSCAASGFTLGAYAINWFRQAPGKERARAWDACITSSGRSAYYADSVKGRFTVSRDHAKNTVYLQMNSLKPEDTAFYYCAAGAACAAAGTMNYWGKGTLVTVSS
B17: ms_IL18R_VHHβ20 (antibody, V domains shown)
VH: DVQLQESGGGLVQAGGSLRLSCAASVSAFRLKVMGWYRQAPGKEREFVAAIDSGDTKSYTNAVKGRFTISGGAATNTVVLQMNSLKPEDTAFYYCNAVLFGRDYWGQGTQVTVSS
B18: ms_IL18R_VHHβ22 (antibody, V domains shown)
VH: DVPLQESGGGLVQPGGSLRLSCAAPGFALEYYAIGWFRQAPGKEREGLSCVSSSRSGGSTVYADSVKGRFTISRDNAKNTVYLQIDSLKVEDTAVYYCAGAPAYRSHYCRLQADDYTYWGQGTQVTVSS
B19: ms_IL18R_VHHβ16 (antibody, V domains shown)
VH: DVQLQESGGGSVPAGGSLRLSCSASGFTTDDYIIGWFRQAPGKKREGVSCISTTDGSAWYADSVKGRFTISSDNANNTVTLQMNSLLPEDTSVYYCAEVSTGTGVLYCREEFYFGMDSWGKGTPVTVSS
B20: ms_IL18R_VHHβ18 (antibody, V domains shown)
VH: DVQLQESGGGLVQAGGSLRLSCAASGRTFSSYAMGWFRQAPGMVREFVAAISWSGGSTYYADSVQGRFTISRDNAKNTVYLQMNSLKPEDTAVYYCAADRSLSGSYFGATIDYWGQGTQVTVSS
B21: ms_IL18R_VHHβ12 (antibody, V domains shown)
VH: DVPLQESGGGLVQPGGSLRLSCRASGVGFSIYTMGWYRQAPGEQRHLVATVTTGGHINYGDSVQGRFTISRENNGNVVELQMHSLKPEDTAVYFCNAIYFGQDIWGQGTQVTVSS
B22: ms_IL18R_VHHβ14 (antibody, V domains shown)
VH: DVPLQESGGGLVQAGGSLRLSCAASDRTVSKGAMGWFRQAPGKEREFVATIGRSSGITYYADSVKGRFTISRDNAKNTWYLQMNSLRPEDTAVYYCAADSSGIIRTTSWAYDYWGQGTQVTVSS
B23: ms_IL18R_VHHβ17 (antibody, V domains shown)
VH: DVPLQESGGGLVQAGGSLRLSCVASGFALDEIAVGWFRQAPGKEREGLSCISSSDGSTLYADSVKGRFTISSDNAKNTVYLQMNSLKPEDTAVYLCAAVRGSCFGRTTHWGQGTQVTVSS
B24: ms_IL18R_VHHβ13 (antibody, V domains shown)
VH: DVQLQESGGGLVQPGGSLRLSCAASGISFRVNVLGWYRQAPGKPRELVASISSGDSTNYADSVKGRFTISRDNAKSTVYLQMNNLKPEDTAVYYCNARIFARDNWGQGTQVTVSS
B25: ms_IL18R_VHHβ15 (antibody, V domains shown)
VH: DVQLQESGGGLVQPGGSLRLSCAASGRFFTINAMGWYRQTPGKQRELVAAITSDGSTTYQDSVKGRFTISRDNANRTANLYMNSLKSEDTAVYYCNADGRFNDNGYVKNFNIWGQGTQVTVSS
B26: ms_IL18R_VHHβ21 (antibody, V domains shown)
VH: DVQLQESGGGLVQAGGSLRLSCAASGITFSPYVMGWYRQAPGKQRELVADMVNGGSTNYADSVKGRFTIFRDTAANTVTLQMNNLKPDDTAVYYCHIMIFGRASWGQGTQVTVSS

Biological target: IL-18BP (human)
Test: BLI

Binding result, no binding:
B1
B2
B3
B4

Biological target: T1, IL-18Rβ ECD
Test: BLI

Binding result, no binding:
B5
B6
B7
B8
B9
B10
B11
B12
B13
B14
B15
B16

Biological target: T2, IL-18Rα ECD
Test: BLI

Binding result, no binding:
B17
B18
B19
B20
B10
B21
B22
B23
B24
B25
B26

From patent US20260347486 (published 2026)
